This passage reports Tryspin binding signal (FU) and TRF signal results from patent US11932673.

Test [1] has as its target trypsin. Nature of the test: monoclonal phage TRF.
The target of test [2] is trypsin. Nature of the test: Fab TRF, 10 ug/mL Fab.
Test [3] has as its target trypsin. Nature of the test: Fab TRF, 0.6 ug/mL Fab.
In test [4] the target is trypsin. Nature of the test: Fab TRF, 2.4 ug/mL Fab.

B1: KB_A01 (scFv, V domains shown)
VH: EVQLVESGGGLVRPGGSLRLSCAASGFTFSSYAMSWVRQAPGKGLEWVSAISGSGGSTYYADSVKGRFTISRDNTKNSLYLQMTSLRADDTAFYYCVKDFGPGYGTGWFDYWGPGTLVTVSS
VL: YLNWYQQKPGKAPKLLIYAAEVCPRILMRCKQDSDCLAGCVCGPNGFCGGTSGVPSRFSGSRSGTEFTLTISSLQPEDFATYYCQKVDDYPLTFGGGTKVEIKR
In turn, B1 had a Tryspin binding signal (FU) with trypsin [1] of 20200 FU. Also, the TRF signal in the test with trypsin [2] stood at 55600; with trypsin [3], 2390; with trypsin [4], 16600.

B2: KB_A06 (scFv, V domains shown)
VH: EVQLVESGGGLVRPGGSLRLSCAASGFTFSSYAMSWVRQAPGKGLEWVSAISGSGGSTYYADSVKGRFTISRDNTKNSLYLQMTSLRADDTAFYYCVKDFGPGYGTGWFDYWGPGTLVTVSS
VL: AVNWYQQLPGKAPKLLIYAAVRCPRILMRCKQDSDCLAGCVCGPNGFCGTPSGIPERFSGSIDRSTNSASLTISGLKTEDEADYYCQSYDSSNLNWVFGGGTKLTVLG
B2: the Tryspin binding signal (FU) in the test with trypsin [1] came out at 24400 FU. In addition, the TRF signal in the test with trypsin [2] was determined as 242000; with trypsin [3], 108000; in the test with trypsin [4] it was 212000.

B3: KB_C10 (scFv, V domains shown)
VH: EVQLVESGGGLVRPGGSLRLSCAASGFTFSSYAMSWVRQAPGKGLEWVSAISGSGGSTYYADSVKGRFTISRDNTKNSLYLQMTSLRADDTAFYYCVKDFGPGYGTGWFDYWGPGTLVTVSS
VL: AVNWYQQLPGKAPKLLIYAAGPCPRILMRCKQDSDCLAGCVCGPNGFCGADSGVSDRFSGSKSGTSASLAITGLQAEDEGDYYCAAWDDSLNGLVFGGGTKVTVLG
Take B3: in the test with trypsin [1], the Tryspin binding signal (FU) was 119000 FU. Also, the TRF signal with trypsin [2] came out at 238000; with trypsin [3], 41700; with trypsin [4] it was 146000.

B4: KB_B11 (scFv, V domains shown)
VH: EVQLVESGGGLVRPGGSLRLSCAASGFTFSSYAMSWVRQAPGKGLEWVSAISGSGGSTYYADSVKGRFTISRDNTKNSLYLQMTSLRADDTAFYYCVKDFGPGYGTGWFDYWGPGTLVTVSS
VL: TQPPSVSEAPRQRVTITCGSRPCPRILMRCKQDSDCLAGCVCGPNGFCGSHNWYQQLPGSSPTTVIYEDNQRPSGVPDRFSGSIDRSSNSASLTISGLKTEDEADYYCQSYDSSNHRVVFGGGTKLTVLG
As for B4, the Tryspin binding signal (FU) with trypsin [1] is 10300 FU.

B5: KB_C07 (scFv, V domains shown)
VH: EVQLVESGGGLVRPGGSLRLSCAASGFTFSSYAMSWVRQAPGKGLEWVSAISGSGGSTYYADSVKGRFTISRDNTKNSLYLQMTSLRADDTAFYYCVKDFGPGYGTGWFDYWGPGTLVTVSS
VL: AVNWYQQLPGKAPKLLIYAAVGCPRILMRCKQDSDCLAGCVCGPNGFCGSASGVSDRFSGSKSGTSASLAISGLRSEDEADYYCASWDDSLRGYVFGTGTKVTVLG
Consider B5, for which the Tryspin binding signal (FU) with trypsin [1] amounted to 43300 FU. Moreover, the figures for the TRF signal with trypsin [2], with trypsin [3] and in the test with trypsin [4] were 276000, 153000 and 247000, respectively.

B6: KB_C08 (scFv, V domains shown)
VH: EVQLVESGGGLVRPGGSLRLSCAASGFTFSSYAMSWVRQAPGKGLEWVSAISGSGGSTYYADSVKGRFTISRDNTKNSLYLQMTSLRADDTAFYYCVKDFGPGYGTGWFDYWGPGTLVTVSS
VL: AVNWYQQLPGKAPKLLIYAAAVCPRILMRCKQDSDCLAGCVCGPNGFCGTRSGIPERFSGSKSGTSAFLAISGLRSEDEADYYCAAWDDSLSGVVFGGGTKLTVLG
As to B6, the Tryspin binding signal (FU) with trypsin [1] was found to be 76800 FU. Moreover, the values for the TRF signal with trypsin [2], with trypsin [3] and in the test with trypsin [4] were 183000, 51100 and 131000, respectively.

B7: KB_A11 (scFv, V domains shown)
VH: EVQLVESGGGLVRPGGSLRLSCAASGFTFSSYAMSWVRQAPGKGLEWVSAISGSGGSTYYADSVKGRFTISRDNTKNSLYLQMTSLRADDTAFYYCVKDFGPGYGTGWFDYWGPGTLVTVSS
VL: YLNWYQQKPGKAPKLLIYAAEICPRILMRCKQDSDCLAGCVCGPNGFCGPSSGIPARFSGSGYGTDFTLTINNIESEDAAYYFCLQHDNFPYTFGQGTKVEIKR
With B7, the Tryspin binding signal (FU) in the test with trypsin [1] was 16400 FU. For the same molecule, the TRF signal with trypsin [2] turned out to be 212000; with trypsin [3], 48900; with trypsin [4], 141000.

B8: KB_A05 (scFv, V domains shown)
VH: EVQLVESGGGLVRPGGSLRLSCAASGFTFSSYAMSWVRQAPGKGLEWVSAISGSGGSTYYADSVKGRFTISRDNTKNSLYLQMTSLRADDTAFYYCVKDFGPGYGTGWFDYWGPGTLVTVSS
VL: AVNWYQQLPGKAPKLLIYAADKCPRILMRCKQDSDCLAGCVCGPNGFCGGGSGIPERFSGSKSGTSASLAISGLRSEDEADYYCATWDDNLNGVVFGGGTKLTVLG
As for B8, the Tryspin binding signal (FU) with trypsin [1] was found to be 121000 FU. Also, the values for the TRF signal with trypsin [2], in the test with trypsin [3] and in the test with trypsin [4] were 218000, 46700 and 65400, respectively.

B9: KB_C09 (scFv, V domains shown)
VH: EVQLVESGGGLVRPGGSLRLSCAASGFTFSSYAMSWVRQAPGKGLEWVSAISGSGGSTYYADSVKGRFTISRDNTKNSLYLQMTSLRADDTAFYYCVKDFGPGYGTGWFDYWGPGTLVTVSS
VL: AVNWYQQLPGKAPKLLIYAAGRCPRILMRCKQDSDCLAGCVCGPNGFCGGGSGVPDRFSGSIDSSSNSASLTISGLRAEDEADYYCQSYDSSNHWVFGGGTKLTVLG
B9 had a Tryspin binding signal (FU) with trypsin [1] of 89400 FU. Further, the TRF signal with trypsin [2] is 289000; in the test with trypsin [3] it was 46800; with trypsin [4] it was 205000.

B10: KB_A02 (scFv, V domains shown)
VH: EVQLVESGGGLVRPGGSLRLSCAASGFTFSSYAMSWVRQAPGKGLEWVSAISGSGGSTYYADSVKGRFTISRDNTKNSLYLQMTSLRADDTAFYYCVKDFGPGYGTGWFDYWGPGTLVTVSS
VL: AVNWYQQLPGKAPKLLIYAAAKCPRILMRCKQDSDCLAGCVCGPNGFCGGASGVSDRFSGSIDSSSNSASLTISGLKPEDEGDYYCQSYDSSNRWVFGGGTKVTVLG
With B10, in the test with trypsin [1], the Tryspin binding signal (FU) was 183000 FU. Besides, the TRF signal in the test with trypsin [2] stood at 255000; in the test with trypsin [3], 93800; with trypsin [4] it was 221000.

B11: KB_B12 (scFv, V domains shown)
VH: EVQLVESGGGLVRPGGSLRLSCAASGFTFSSYAMSWVRQAPGKGLEWVSAISGSGGSTYYADSVKGRFTISRDNTKNSLYLQMTSLRADDTAFYYCVKDFGPGYGTGWFDYWGPGTLVTVSS
VL: TQPPSVSEAPRQRVTITCGERPCPRILMRCKQDSDCLAGCVCGPNGFCGANNWYQQLPGSSPTTVIYEDNQRPSGVPDRFSGSIDSSSNSASLTISGLKTEDEADYYCQSYDSSNQVFGGGTKVTVLG
B11 registered a Tryspin binding signal (FU) with trypsin [1] of 17400 FU.

B12: KB_B01 (scFv, V domains shown)
VH: EVQLVESGGGLVRPGGSLRLSCAASGFTFSSYAMSWVRQAPGKGLEWVSAISGSGGSTYYADSVKGRFTISRDNTKNSLYLQMTSLRADDTAFYYCVKDFGPGYGTGWFDYWGPGTLVTVSS
VL: AVNWYQQLPGKAPKLLIYAAAGCPRILMRCKQDSDCLAGCVCGPNGFCGTRSGVSDRFSGSKSGTSASLAISGLRSEDEADYYCAAWDDSLRAYVFGTGTKLTVLG
Molecule B12 gave a Tryspin binding signal (FU) with trypsin [1] of 57700 FU. The TRF signal with trypsin [2] worked out at 257000; with trypsin [3], 54800; with trypsin [4] it was 153000.

B13: KB_A09 (scFv, V domains shown)
VH: EVQLVESGGGLVRPGGSLRLSCAASGFTFSSYAMSWVRQAPGKGLEWVSAISGSGGSTYYADSVKGRFTISRDNTKNSLYLQMTSLRADDTAFYYCVKDFGPGYGTGWFDYWGPGTLVTVSS
VL: AVNWYQQLPGKAPKLLIYAAERCPRILMRCKQDSDCLAGCVCGPNGFCGTPSGVPDRFSGSIDTFSNSASLTISGLKTEDEADYYCQSYDSSHHWVFGGGTKLTVLG
Consider B13, for which the Tryspin binding signal (FU) with trypsin [1] amounted to 57700 FU. Further, the TRF signal in the test with trypsin [2] was 161000; with trypsin [3], 21000; with trypsin [4], 84100.

B14: KB_B10 (scFv, V domains shown)
VH: EVQLVESGGGLVRPGGSLRLSCAASGFTFSSYAMSWVRQAPGKGLEWVSAISGSGGSTYYADSVKGRFTISRDNTKNSLYLQMTSLRADDTAFYYCVKDFGPGYGTGWFDYWGPGTLVTVSS
VL: QSVLTQLPSVSEAPRQRVTITCGRAMCPRILMRCKQDSDCLAGCVCGPNGFCGTGNWYQQHPGKAPKLIIFDVSKRPSGVPDRFSASKSGNTASLTISGLQAEDEADYYCNSYTSSNTWVFGGGTQLTVLG
In turn, B14 came in with a Tryspin binding signal (FU) in the test with trypsin [1] of 9270 FU.

B15: KB_A03 (scFv, V domains shown)
VH: EVQLVESGGGLVRPGGSLRLSCAASGFTFSSYAMSWVRQAPGKGLEWVSAISGSGGSTYYADSVKGRFTISRDNTKNSLYLQMTSLRADDTAFYYCVKDFGPGYGTGWFDYWGPGTLVTVSS
VL: AVNWYQQLPGKAPKLLINAADRCPRILMRCKQDSDCLAGCVCGPNGFCGTNSGVPDRFSGSSSGNTASLTITGAQAEDEADYYCNSRDSSGNNWVFGGGTKVTVLG
For B15, the Tryspin binding signal (FU) with trypsin [1] amounted to 28700 FU.

B16: KB_A10 (scFv, V domains shown)
VH: EVQLVESGGGLVRPGGSLRLSCAASGFTFSSYAMSWVRQAPGKGLEWVSAISGSGGSTYYADSVKGRFTISRDNTKNSLYLQMTSLRADDTAFYYCVKDFGPGYGTGWFDYWGPGTLVTVSS
VL: AVNWYQQLPGKAPKLLIYAAGGCPRILMRCKQDSDCLAGCVCGPNGFCGSNSGVPDRFSGSKSGNTASLTISGLQSEDEADYYCAAWDDSLSGVVFGGGTQLTVLG
The molecule B16 gave a Tryspin binding signal (FU) in the test with trypsin [1] of 38800 FU. The TRF signal turned out to be 68700 with trypsin [2], 14600 with trypsin [3] and 71900 in the test with trypsin [4].

B17: KB_B02 (scFv, V domains shown)
VH: EVQLVESGGGLVRPGGSLRLSCAASGFTFSSYAMSWVRQAPGKGLEWVSAISGSGGSTYYADSVKGRFTISRDNTKNSLYLQMTSLRADDTAFYYCVKDFGPGYGTGWFDYWGPGTLVTVSS
VL: AVNWYQQLPGKAPKLLIYAAVGCPRILMRCKQDSDCLAGCVCGPNGFCGTGSGIPERFSGSKSGNTASLTISGLQAEDEGDYYCAAWDDSLSGPVFGGGTKLTVLG
Turning to B17, the Tryspin binding signal (FU) in the test with trypsin [1] came to 116000 FU. The TRF signal was 56600 with trypsin [2], 2340 with trypsin [3] and 15900 with trypsin [4].
